For experiment [1], the target named is T1, cyno serum albumin (in house produced from animal tissue) (cynomolgus).
T1 construct: also called cynomolgus serum albumin
Kind of experiment: SPR ProteOn XPR36, serum albumin immobilized by amine coupling, 1:1 model. The protocol:
(§1) Serum albumin proteins were immobilized on a GLC Sensor Chip (Biorad) via amine coupling, using EDC and NHS chemistry (running buffer: HBS-EP+, pH 7.4). Purified ISVDs were injected for 2 minutes (flow rate 45 μL/min) at different concentrations (between 0.24 nM and 500 nM) and dissociation was followed for 900 s. Regeneration was performed by injecting 10 mM Glycine-HCl (pH 1.5) for 47 seconds (flow rate 100 μL/min). Data was double referenced by subtracting a reference ligand lane and a blank buffer injection. Processed sensorgrams were analyzed based on the 1:1 interaction model (Langmuir binding model) using ProteOn Manager 3.1.0 (Version 3.1.0.6) software.

In experiment [2] the target is T2, human serum albumin (Sigma cat no A8763) (human, UniProt P02768 25-609).
T2 construct: also called HSA
The experiment is described as above. The method, then:
as §1

The target of experiment [3] is mouse serum albumin (DivBioScience cat no IMSA) (mouse, UniProt P07724 25-608). The description is as above. The method, then: as §1
In experiment [4] the target is T3, human Glypican-6 (R&D systems, cat no 2845-GP) (human, UniProt Q9Y625 24-529, limits assumed).
T3 construct: Bought; also called GPC6
T3 sequence (looked up): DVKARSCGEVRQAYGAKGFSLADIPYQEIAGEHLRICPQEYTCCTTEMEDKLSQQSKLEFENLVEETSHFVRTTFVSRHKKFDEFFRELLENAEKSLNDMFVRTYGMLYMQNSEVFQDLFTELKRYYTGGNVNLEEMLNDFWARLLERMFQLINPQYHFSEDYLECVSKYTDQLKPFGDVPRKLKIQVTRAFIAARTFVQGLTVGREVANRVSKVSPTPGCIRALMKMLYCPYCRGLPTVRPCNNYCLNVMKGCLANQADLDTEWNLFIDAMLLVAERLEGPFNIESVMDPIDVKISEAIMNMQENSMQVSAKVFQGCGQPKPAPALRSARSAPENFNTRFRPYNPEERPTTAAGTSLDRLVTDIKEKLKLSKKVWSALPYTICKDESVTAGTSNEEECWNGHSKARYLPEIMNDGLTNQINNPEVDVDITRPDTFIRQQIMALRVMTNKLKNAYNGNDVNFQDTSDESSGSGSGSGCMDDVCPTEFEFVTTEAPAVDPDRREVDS
Kind of experiment: ELISA, Glypican-6 coated at 2 ug/mL. The protocol:
Human GPC1 (R&D systems, cat no 4519-GP), human GPC2 (R&D systems, cat no 2304-GP), human GPC3 (R&D systems, cat no 2119-GP), human Glypican-5 (R&D systems, cat no 2607-G5) and human Glypican-6 (R&D systems, cat no 2845-GP) were directly coated overnight at 4° C. (2 μg/mL, 1×PBS buffer) on a 384-well HB SpectraPlate (PerkinElmer). The following day the plate was washed 6 times (AquaMax microplate washer, Molecular devices) and blocked with 1×PBS+1% Casein for 2 hours at room temperature. […] After 6 final wash steps the es(HS)TMB substrate (SDT) was added and the reaction stopped by addition of 1 M HCl after 10 minutes. The absorbance of the plate was measured at wavelengths 450 and 620 nm on the Clariostar instrument (BMG LABTECH) and the OD₄₅₀-OD₆₂₀ calculated and plotted for data analysis.
(In general: In an ELISA, binding on a coated surface is turned into a signal by an enzyme label.)

For experiment [5], the target named is T4, Recombinant human GPC4/hFc (R&D Systems, cat no 9195-GP) (human, UniProt O75487 19-529, limits assumed).
T4 construct: Bought; not shown: captured with anti-human IgG1
T4 sequence (looked up): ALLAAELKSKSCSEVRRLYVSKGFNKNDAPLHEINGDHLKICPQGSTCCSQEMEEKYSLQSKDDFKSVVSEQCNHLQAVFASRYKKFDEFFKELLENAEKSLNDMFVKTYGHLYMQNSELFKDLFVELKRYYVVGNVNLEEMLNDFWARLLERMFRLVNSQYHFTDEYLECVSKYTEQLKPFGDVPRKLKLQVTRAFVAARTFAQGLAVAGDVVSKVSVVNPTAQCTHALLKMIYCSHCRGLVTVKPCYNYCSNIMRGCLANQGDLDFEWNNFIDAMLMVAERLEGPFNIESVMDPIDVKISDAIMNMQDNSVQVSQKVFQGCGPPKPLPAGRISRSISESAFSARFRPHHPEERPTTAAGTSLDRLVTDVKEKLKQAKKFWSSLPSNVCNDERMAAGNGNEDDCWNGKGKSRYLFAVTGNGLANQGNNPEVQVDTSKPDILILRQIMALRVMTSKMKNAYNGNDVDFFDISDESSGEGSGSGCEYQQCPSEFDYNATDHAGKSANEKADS
Kind of experiment: SPR ProteOn XPR36, GPC4/hFc captured on anti-human IgG1. The source says: Data was double referenced by subtracting a reference ligand lane and a blank buffer injection.

Experiment [6] concerns the target T5, human GPC3 expressed on CHO Flp-In cells (human, UniProt P51654 25-554).
T5 construct: On cells; Q25-R358, S359-H580; also called hGPC3 CHO; CHO huGPC3
The experiment can be described thus: flow cytometry on CHO Flp-In human GPC3 cells. On the technique in general: Flow cytometry measures light scatter and fluorescence of single cells or particles in a stream.

The target in experiment [7] is T6, cyno GPC3 expressed on CHO Flp-In cells (cynomolgus).
T6 construct: range 3-559; On cells; also called cyGPC3 CHO; CHO-cGPC3
The experiment can be described thus: flow cytometry on CHO Flp-In cyno GPC3 cells.

Experiment [8] deals with human GPC3 on tumor cell lines (HepG2, Huh-7, NCI-H661, MKN-45, NCI-H23, BxPC-3, NCI-H292) (human, UniProt P51654 25-554). Kind of experiment: cell-based or functional assay.
Experiment [9] concerns the target T6, cyno GPC3 expressed on CHO Flp-In cells. The experiment can be described thus: flow cytometry on cells expressing GPC3; lower end tied by Table 21 to CHO cyno GPC3.

mouse serum albumin (DivBioScience cat no IMSA), sequence (P07724 25-608 limits assumed): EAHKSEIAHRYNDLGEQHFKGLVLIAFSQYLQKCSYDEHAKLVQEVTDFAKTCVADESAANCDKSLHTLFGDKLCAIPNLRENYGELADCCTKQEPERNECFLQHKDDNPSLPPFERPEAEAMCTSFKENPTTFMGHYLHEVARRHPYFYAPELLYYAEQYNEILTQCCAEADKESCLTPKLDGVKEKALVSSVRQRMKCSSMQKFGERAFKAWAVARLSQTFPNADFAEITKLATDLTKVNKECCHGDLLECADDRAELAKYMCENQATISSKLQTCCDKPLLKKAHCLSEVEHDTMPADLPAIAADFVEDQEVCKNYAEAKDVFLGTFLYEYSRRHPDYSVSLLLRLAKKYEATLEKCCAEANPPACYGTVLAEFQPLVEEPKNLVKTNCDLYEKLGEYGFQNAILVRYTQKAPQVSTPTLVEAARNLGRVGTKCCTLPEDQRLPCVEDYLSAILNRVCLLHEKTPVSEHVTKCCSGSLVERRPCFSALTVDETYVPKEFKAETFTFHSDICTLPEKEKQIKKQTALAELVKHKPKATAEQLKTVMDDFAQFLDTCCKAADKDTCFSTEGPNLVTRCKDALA
T1 sequence (A2V9Z4 25-608): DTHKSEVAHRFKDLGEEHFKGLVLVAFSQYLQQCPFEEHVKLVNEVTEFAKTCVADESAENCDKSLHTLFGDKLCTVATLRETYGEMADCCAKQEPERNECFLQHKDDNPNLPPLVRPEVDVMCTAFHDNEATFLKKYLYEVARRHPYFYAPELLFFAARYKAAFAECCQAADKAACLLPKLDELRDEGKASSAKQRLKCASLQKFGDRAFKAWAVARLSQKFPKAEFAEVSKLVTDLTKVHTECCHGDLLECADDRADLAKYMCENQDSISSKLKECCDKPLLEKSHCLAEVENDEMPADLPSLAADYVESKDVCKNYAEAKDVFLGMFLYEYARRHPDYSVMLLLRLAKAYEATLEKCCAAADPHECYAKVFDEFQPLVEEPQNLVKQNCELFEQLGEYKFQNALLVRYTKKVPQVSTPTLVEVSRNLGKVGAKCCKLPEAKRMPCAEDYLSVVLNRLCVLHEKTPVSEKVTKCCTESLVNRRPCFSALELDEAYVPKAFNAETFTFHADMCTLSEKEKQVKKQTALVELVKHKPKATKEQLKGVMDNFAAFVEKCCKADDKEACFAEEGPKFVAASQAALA

B1: A022600424 (other)
chain: DVQLVESGGGVVQPGGSLRLSCVASGYVHKINFYGWYRQAPGKEREKVAHISIGDQTDYADSAKGRFTISRDESKNTVYLQMNSLRPEDTAAYYCRALSRIWPYDYWGQGTLVTVSSGGGGSEVQLVESGGGVVQPGGSLRLSCAASGFTFSSFAMTWVRRPPGKGLEWVATITNKGVTSYADSVKGRFTISRDNAKNTLYLQMNSLRPEDTALYICANARRTGPRAPTDIGSYRGQGTLVTVSSGGGGSGGGSEVQLVESGGGVVQPGGSLRLSCAASGSIFRSVFSSSTMEWYRQAPGKKRELVARIAPGEGTYYGALYADSVKGRFTISRDNAKNTVYLQMNSLRPEDTALYYCASGVAWGQGTLVTVSSGGGGSGGGSEVQLVESGGGVVQPGGSLRLSCAASGFTFRSFGMSWVRQAPGKGPEWVSSISGSGSDTLYADSVKGRFTISRDNSKNTLYLQMNSLRPEDTALYYCTIGGSLSRSSQGTLVTVSSA
notes: Trispecific tetravalent ISVD (VHH) T-cell engager: anti-TCR, two anti-GPC3 (biparatopic), anti-albumin; also called TCE01-5GS-A022600351-9GS-A022600314-9GS-ALB23002-A
B1: the Kd in [1] was 0.33 nM; in experiment [2], 0.83 nM; in experiment [3] it was 6.9 nM. The binding result in experiment [4] is “no binding”; in [5], “no binding (tested: between 4 nM and 1000 nM)”. Besides, the 50% effective concentration (EC50) in experiment [6] was 1.82 nM; in experiment [7], 1.11 nM; in experiment [9] it was 1 to 2 nM. Also, in experiment [8], the “IC50 (M), xCELLigence TDC assay on Huh-7, Primary cy T cells” value stood at 2.29e-10 M. Moreover, the “IC50 (M), xCELLigence TDC assay on Huh-7, Primary hu T cells” value in experiment [8] was 7.59e-11 M.

One may read the Kd as the constant that tells how readily two partners part at equilibrium. Read a low Kd as higher affinity. The term EC50 denotes the concentration needed to bring the measured effect to its halfway point.

Source of the values: patent publication US20240343823A1 (Ablynx, published 2024).
